The term stoichiometry N denotes the number of molecules, sites or subunits per partner or assembly.

The target of data set [1] is purified YibK protein with R146C (21.6 kDa monomer) (UniProt P44868). The data set can be described thus: SDS-PAGE without reducing agent and Western blot (disulfide-linked dimer); purified YibK protein, no reducing agent.
Data set [2] deals with the molecule itself. Nature of the data set: two-hybrid.

As to “purified YibK protein with R146C (21.6 kDa monomer) (from UniProt P44868) (natural protein)”, the stoichiometry N in data set [1] came to 2.

B1: wild-type YibK–SH2 (expressed as SS–YibK–SH2) (natural protein)
chain: MLDIVLYEPEIPQNTGNIIRLCANTGFRLHLIEPLGFTWDDKRLRRSGLDYHEFAEIKRHKTFEAFLESEKPKRLFALTTKGCPAHSQVKFKLGDYLMFGPETRGIPMSILNEMPMEQKIRIPMTANSRSMNLSNSVAVTVYEAWRQLGYKGAVNLPEVK
notes: also called WT; not shown: SH2 domain of ABL1 kinase, C-terminal, kept
As to B1, the “fold P_cadBA transcriptional activation over cytoplasmic YibK–SH2” value in data set [2] is 66 fold.

For the origin of these results see article PMC8514426 (Nature Communications, 2021).
